Measurements published in patent US11856945B2, “Methods and systems for preparing and preserving a biological sample” (Washington University, priority 2017, dated 2024).

Legend:
Format in all cases: physicochemical
[1] = Recovery/elution of NGAL from ZIF-8 crystals and paper substrates (ELISA); details: dried on paper, recovered immediately after drying; spiked NGAL amount = 100%
Text: Preliminary experiments for investigating optimal buffer to dissolve NGAL embedded ZIF-8 crystals. To completely dissolve the crystals, the final pH of the system needs to be at or below 6.0 to ensure the complete release of NGAL from ZIF-8 encapsulation. For example, in the #4 composition (0.1 M phosphate buffer at pH 6.0), the crystals cannot be completely dissolved and this leads to incomplete recovery 60%, FIG. 8). Although the initial pH of the buffer is 6.0, the basic nature of ZIF-8 precursor residue in the system increases the pH of the buffer to 6.2, leading to incomplete release and recovery.
Left bar: Recovery percentage of ZIF-8 encapsulated NGAL dried on paper using the optimized elution buffer (#9 composition, 0.2 M PBS at pH=5.6 with 2 mM EDTA and 0.1% Tween 20). Middle bar: Recovery percentage of ZIF-8 encapsulated NGAL dried on paper using the #4 composition elution buffer (0.1 M PBS at pH=6 and 0.1% Tween 20). Right bar: Recovery percentage of NGAL alone dried on paper using the conventional elution buffer recipe (PBS at pH=7.4 with 0.1% Tween 20). The samples were recovered immediately after drying. 1 ml elution buffer was used to elute each paper strip. The spiked NGAL amount was set as the reference (100% recovery).
Protein recovery. […]

[2] = Preservation of NGAL in patient urine dried on paper (ELISA); details: three acute kidney injury patients, 1 week
Description: Following the successful optimization of ZIF-8 encapsulation using spiked artificial urine samples, the applicability of this technique to patient urine samples was evaluated. Three acute kidney injury patients with different urinary NGAL levels (Patient #1: 32.8 ng/ml, Patient #2: 17.4 ng/ml and Patient #3: 97.5 ng/ml, quantified by ELISA and confirmed by Western blotting, FIG. 15) were selected. […] Thus, protein biomarkers in the mixture are not subjected to extremely low or high pH (Table 2). To assess the preservation efficacy of NGAL, the urine samples with and without ZIF-8 encapsulation dried on paper substrates were stored at 25 or 40° C. for 1 week. NGAL concentration in the eluate was quantified using ELISA. […] Frozen liquid sample (−20° C.) was used as a reference. POSs represent 3 distinct Positive Control signal intensities (POS1>POS2>POS3). Results are the mean and standard deviation from two parallel dots for each biomarker. The frozen-liquid samples stored at −20° C. were employed as the reference.
Sample preparation. NGAL-spiked artificial urine (50 μg/ml of NGAL, 25 μl) or patient urine (25 μl) was first mixed with 2-methylimidazole aqueous solution (12.5 μl) and then zinc acetate dihydrate aqueous solution (12.5 μl). The final concentrations of 2-methylimidazole after mixing were 320 mM, 160 mM, 80 mM and 40 mM. […]

[3] = NGAL quantity in eluates by BCA assay; details: paper card stored at 40° C. for 1 week; % of spiked amount
[4] = NGAL encapsulation efficiency in ZIF-8 crystals (ELISA of supernatant)
Description: To quantify the encapsulation efficiency, the supernatant after crystals centrifugation was collected and remaining NGAL concentration was determined using sandwich enzyme-linked immunosorbent assay (ELISA). […] The encapsulation efficiency was calculated by subtracting the remaining NGAL amount in the supernatant after encapsulation and centrifugation (concentration measured by ELISA) from the total NGAL amount.
Characterization. To characterize protein-embedded crystals, crystals were centrifuged and washed with DI water twice (8 k r.p.m. for 20 minutes). To calculate the encapsulation efficiency, the supernatant after first centrifugation was collected and assayed by ELISA. SEM images were obtained using a FEI Nova 2300 field-emission scanning electron microscope at an acceleration voltage of 10 kV. Fourier transform infrared spectroscopy (FTIR) measurements were conducted using a Nicolette Nexus 470 spectrometer. The Raman spectra were obtained using a Renishaw inVia confocal Raman spectrometer mounted on a Leica microscope with a 50× objective and a 514 nm wavelength diode laser as an illumination source. The X-ray diffraction (XRD) measurements of the samples were recorded on a Bruker D8-Advance X-ray powder diffractometer using Cu Kα radiation (λ=1.5406 Å).

B1: neutrophil gelatinase-associated lipocalin (protein, UniProt P80188 21-198, looked up)
Neutrophil …: QDSTSDLIPAPPLSKVPLQQNFQDNQFQGKWYVVGLAGNAILREDKDPQKMYATIYELKEDKSYNVTSVLFRKKKCDYWIRTFVPGCQPGEFTLGNIKSYPGLTSYLVRVVSTNYNQHAMVFFKKVSQNREYFKITLYGRTKELTSELKENFIRFSKSLGLPENHIVFPVPIDQCIDG
notes: urinary biomarker for acute kidney injury; human recombinant
- elution from paper substrate [1]: ~75%
- NGAL preservation in patient urine ([2]; 25° C.): less than 40%
- NGAL preservation in patient urine ([2]; 40° C.): less than 40%
- proteins eluted as measured by BCA assay [3]: 70%
- encapsulation of NGAL ([4]; 40 mM 2-methylimidazole with 10 mM zinc acetate): ~70%
- encapsulation efficiency of NGAL ([4]; NGAL spiked in artificial urine, 40 mM zinc acetate and 160 mM 2-methylimidazole): ~95%
- encapsulation efficiency of NGAL ([4]; control: mixing NGAL-spiked artificial urine with pure pre-formed ZIF-8 crystals (physical adsorption)): ~10%
